In the supplement of paper PMC9233669 one finds self-aminoacylation data, which are given here for 21 sequences.

Fewer inactive variants are shown than the library holds.

One data set concerns biotinyl-Ile-oxazolone. The data set is described as follows: self-aminoacylation, catalytic enhancement (BIO) (fold over background); higher = more active; k-Seq, kA / k0A0; sequences stand for … in GGGAAUGGAUCCACAUCUACGAAUUC…UUCACUGCAGACUUGACGAAGCUG
The method, boiled down:
(§1)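 Each biotinyl-aminoacyl-oxazolone, at 2–1250 μM, was incubated with mutagenized RNA pools (0.43 μM) carrying a 21-nt variable region. The 50 μL reactions contained HEPES/NaCl/KCl/MgCl2/CaCl2 buffer with 5% acetonitrile at pH 6.9–7.0 and ran for 90 minutes at room temperature. After streptavidin capture, RNA was measured by qPCR in triplicate and by Illumina sequencing, and catalytic enhancement was calculated as median kA over the uncatalyzed rate from a pseudo-first-order fit of per-sequence fraction reacted.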

A further data set deals with biotinyl-Met-oxazolone. In words: self-aminoacylation, catalytic enhancement (BMO) (fold over background); higher = more active; k-Seq, kA / k0A0; sequences stand for … in GGGAAUGGAUCCACAUCUACGAAUUC…UUCACUGCAGACUUGACGAAGCUG
The method, boiled down: as §1

A further data set deals with biotinyl-Val-oxazolone. The data set is described as follows: self-aminoacylation, catalytic enhancement (BVO) (fold over background); higher = more active; k-Seq, kA / k0A0; sequences stand for … in GGGAAUGGAUCCACAUCUACGAAUUC…UUCACUGCAGACUUGACGAAGCUG
The method in brief: as §1

For the next data set, the system named is biotinyl-Trp-oxazolone. The data set is described as follows: self-aminoacylation, catalytic enhancement (BWO) (fold over background); higher = more active; k-Seq, kA / k0A0; sequences stand for … in GGGAAUGGAUCCACAUCUACGAAUUC…UUCACUGCAGACUUGACGAAGCUG
The method, boiled down:
as §1

In another data set the test system is biotinyl-Phe-oxazolone. In words: self-aminoacylation, catalytic enhancement (BFO) (fold over background); higher = more active; k-Seq, kA / k0A0; sequences stand for … in GGGAAUGGAUCCACAUCUACGAAUUC…UUCACUGCAGACUUGACGAAGCUG
The method in brief:
as §1

The test system of a further data set is biotinyl-Leu-oxazolone. In words: self-aminoacylation, catalytic enhancement (BLO) (fold over background); higher = more active; k-Seq, kA / k0A0; sequences stand for … in GGGAAUGGAUCCACAUCUACGAAUUC…UUCACUGCAGACUUGACGAAGCUG
The method in brief: as §1

In the case of “CCACAAUUCAAGCCAUCGGUC [Fam1B.1 aminoacylation ribozyme variant]”, the self-aminoacylation in the data set on biotinyl-Ile-oxazolone was 1.46; in the data set with biotinyl-Met-oxazolone, 1.47; with biotinyl-Val-oxazolone, 1.7; in the data set on biotinyl-Trp-oxazolone, 1.3; in the data set with biotinyl-Phe-oxazolone, 1.19; in the data set with biotinyl-Leu-oxazolone it was 1.59.
In the case of “AUUCACUUAGGUCAUCGGGCG [Fam2.2 aminoacylation ribozyme variant]”, the self-aminoacylation amounted to 2.55 in the data set on biotinyl-Ile-oxazolone; 3.18 with biotinyl-Met-oxazolone; 3.17 with biotinyl-Val-oxazolone; 3.91 in the data set with biotinyl-Trp-oxazolone; 4.38 in the data set on biotinyl-Phe-oxazolone; 4.02 in the data set with biotinyl-Leu-oxazolone.
Regarding “CUUCACCUAGGUCAUCAGGUG [Fam2.2 aminoacylation ribozyme variant]”, the self-aminoacylation stood at 1.46 with biotinyl-Ile-oxazolone; 1.62 in the data set on biotinyl-Met-oxazolone; 1.7 with biotinyl-Val-oxazolone; 1.31 with biotinyl-Trp-oxazolone; 1.47 in the data set on biotinyl-Phe-oxazolone; 1.84 in the data set on biotinyl-Leu-oxazolone.
With “CCACACUUCAGGUAAUCGGUC [Fam1B.1 aminoacylation ribozyme variant]”, the self-aminoacylation came out at 0.805 in the data set on biotinyl-Ile-oxazolone; 0.887 in the data set with biotinyl-Met-oxazolone; 1.07 with biotinyl-Val-oxazolone; 0.712 with biotinyl-Trp-oxazolone; 1.07 in the data set on biotinyl-Phe-oxazolone; 0.824 in the data set with biotinyl-Leu-oxazolone.
On to “UCACACUUGAAGCAAUCGGUC [Fam1B.1 aminoacylation ribozyme variant]”, for which the self-aminoacylation in the data set on biotinyl-Ile-oxazolone came to 0.744; in the data set with biotinyl-Met-oxazolone it was 0.762; in the data set on biotinyl-Val-oxazolone it was 0.774; in the data set on biotinyl-Trp-oxazolone, 0.486; in the data set on biotinyl-Phe-oxazolone, 0.541; in the data set with biotinyl-Leu-oxazolone it was 0.751.
In the case of “AAAUUUGCUAAUAGUCGCUAG [Fam3.1 aminoacylation ribozyme variant]”, the self-aminoacylation in the data set on biotinyl-Ile-oxazolone came to 1.73; in the data set with biotinyl-Met-oxazolone, 1.22; in the data set with biotinyl-Val-oxazolone, 1.58; in the data set on biotinyl-Trp-oxazolone, 2.84; in the data set with biotinyl-Phe-oxazolone, 2.81; in the data set with biotinyl-Leu-oxazolone it was 1.38.
Turning to “CCAUUCUUCAAGCAAUCGGUC [Fam1B.1 aminoacylation ribozyme variant]”, the self-aminoacylation with biotinyl-Ile-oxazolone turned out to be 1.04; in the data set on biotinyl-Met-oxazolone it was 0.939; in the data set on biotinyl-Val-oxazolone, 0.976; in the data set with biotinyl-Trp-oxazolone, 1.68; in the data set on biotinyl-Phe-oxazolone, 2.79; in the data set with biotinyl-Leu-oxazolone, 0.992.
With “CCGCACUUCAAGCAAUCGGCC [Fam1B.1 aminoacylation ribozyme variant]”, the self-aminoacylation was 1.97 with biotinyl-Ile-oxazolone; 1.71 with biotinyl-Met-oxazolone; 3.21 in the data set on biotinyl-Val-oxazolone; 6.53 in the data set with biotinyl-Trp-oxazolone; 6.69 in the data set on biotinyl-Phe-oxazolone; 1.61 with biotinyl-Leu-oxazolone.
As for “CAGUUUGCUAAUAGGCGCAAG [Fam3.1 aminoacylation ribozyme variant]”, the self-aminoacylation came to 1.21 in the data set with biotinyl-Ile-oxazolone; 1.14 with biotinyl-Met-oxazolone; 1.27 with biotinyl-Val-oxazolone; 0.744 with biotinyl-Trp-oxazolone; 0.95 in the data set on biotinyl-Phe-oxazolone; 1.35 in the data set with biotinyl-Leu-oxazolone.
“AAGUUUGCGAAUAGUCGCAAA [Fam3.1 aminoacylation ribozyme variant]”: the self-aminoacylation came to 2.03 with biotinyl-Ile-oxazolone; 2.22 in the data set with biotinyl-Met-oxazolone; 1.57 with biotinyl-Val-oxazolone; 1.31 in the data set on biotinyl-Trp-oxazolone; 1.97 with biotinyl-Phe-oxazolone; 1.38 in the data set with biotinyl-Leu-oxazolone.
In the case of “AUUUCCCUGGUCAUGGAGUGA [Fam2.1 aminoacylation ribozyme variant]”, the self-aminoacylation in the data set on biotinyl-Ile-oxazolone came out at 2.96; in the data set on biotinyl-Met-oxazolone, 4.2; in the data set with biotinyl-Val-oxazolone it was 2.89; in the data set with biotinyl-Trp-oxazolone, 4.72; in the data set on biotinyl-Phe-oxazolone, 22; with biotinyl-Leu-oxazolone it was 4.22.
As to “CCUCACUUCAAGCAAUCGAUC [Fam1B.1 aminoacylation ribozyme variant]”, the self-aminoacylation in the data set with biotinyl-Ile-oxazolone is 0.494; in the data set on biotinyl-Met-oxazolone, 0.482; with biotinyl-Val-oxazolone, 0.691; with biotinyl-Trp-oxazolone, 0.672; in the data set with biotinyl-Phe-oxazolone it was 1.71; in the data set with biotinyl-Leu-oxazolone, 0.453.
“AUUACCCUAGUCAUCAAGUGA [Fam2.1 aminoacylation ribozyme variant]”: the self-aminoacylation worked out at 2.05 in the data set with biotinyl-Ile-oxazolone; 3.73 with biotinyl-Met-oxazolone; 2.58 with biotinyl-Val-oxazolone; 4.95 with biotinyl-Trp-oxazolone; 11.2 in the data set with biotinyl-Phe-oxazolone; 3.66 with biotinyl-Leu-oxazolone.
Consider “CUACUUCACACAACCGGUCUG [Fam1A.1 aminoacylation ribozyme variant]”, for which the self-aminoacylation in the data set on biotinyl-Ile-oxazolone was 0.858; with biotinyl-Met-oxazolone it was 1.2; in the data set on biotinyl-Val-oxazolone, 1.01; with biotinyl-Trp-oxazolone, 0.778; in the data set with biotinyl-Phe-oxazolone, 1.07; in the data set on biotinyl-Leu-oxazolone, 0.892.
On to “CCACCCUGCAAGCAAUCGGUC [Fam1B.1 aminoacylation ribozyme variant]”, for which the self-aminoacylation in the data set on biotinyl-Ile-oxazolone is 1.42; in the data set on biotinyl-Met-oxazolone, 1.3; with biotinyl-Val-oxazolone it was 1.73; in the data set with biotinyl-Trp-oxazolone it was 1.23; in the data set with biotinyl-Phe-oxazolone, 1.28; in the data set with biotinyl-Leu-oxazolone, 1.17.
Regarding “AUUACCCUGGUCAUCAAGUGA [Fam2.1 aminoacylation ribozyme variant]”, the self-aminoacylation was 1.51 with biotinyl-Ile-oxazolone; 2.31 with biotinyl-Met-oxazolone; 1.79 with biotinyl-Val-oxazolone; 2.87 in the data set on biotinyl-Trp-oxazolone; 4.11 with biotinyl-Phe-oxazolone; 2.25 with biotinyl-Leu-oxazolone.
Turning to “CUACUUCAAACAAUCGGUAUC [Fam1A.1 aminoacylation ribozyme variant]”, the self-aminoacylation is 0.635 in the data set on biotinyl-Ile-oxazolone; 0.541 in the data set on biotinyl-Met-oxazolone; 0.594 with biotinyl-Val-oxazolone; 0.994 with biotinyl-Trp-oxazolone; 2.2 in the data set with biotinyl-Phe-oxazolone; 0.554 with biotinyl-Leu-oxazolone.
Take “CCACACUUCUAGCAAUCGGUU [Fam1B.1 aminoacylation ribozyme variant]”: the self-aminoacylation in the data set with biotinyl-Ile-oxazolone is 1.34; with biotinyl-Met-oxazolone, 0.978; in the data set with biotinyl-Val-oxazolone, 1.36; with biotinyl-Trp-oxazolone, 1.12; in the data set with biotinyl-Phe-oxazolone it was 1.17; in the data set with biotinyl-Leu-oxazolone it was 1.13.
On to “GUACACUUCAAGCAAUCGGUC [Fam1B.1 aminoacylation ribozyme variant]”, for which the self-aminoacylation in the data set on biotinyl-Ile-oxazolone came out at 1.55; in the data set with biotinyl-Met-oxazolone it was 1.29; in the data set on biotinyl-Val-oxazolone it was 1.34; with biotinyl-Trp-oxazolone, 18.4; with biotinyl-Phe-oxazolone, 21.1; in the data set on biotinyl-Leu-oxazolone, 1.64.
Turning to “CCACACGUGAAGCAAUCGGUC [Fam1B.1 aminoacylation ribozyme variant]”, the self-aminoacylation with biotinyl-Ile-oxazolone was 0.9; in the data set with biotinyl-Met-oxazolone, 1.32; in the data set with biotinyl-Val-oxazolone it was 1.2; in the data set on biotinyl-Trp-oxazolone, 1.39; in the data set on biotinyl-Phe-oxazolone, 0.826; in the data set on biotinyl-Leu-oxazolone, 0.721.
For the sequence “CCACACUUCAAGCACUCGGCC [Fam1B.1 aminoacylation ribozyme variant]”, the self-aminoacylation in the data set with biotinyl-Ile-oxazolone stood at 3.06; with biotinyl-Met-oxazolone, 2.89; in the data set on biotinyl-Val-oxazolone it was 4.04; in the data set on biotinyl-Trp-oxazolone, 5.51; in the data set on biotinyl-Phe-oxazolone, 15.9; with biotinyl-Leu-oxazolone it was 3.19.
